Reference: patent US11672846B2, “Soluble bacterial and fungal proteins and methods and uses thereof in inhibiting and dispersing biofilm” (priority 2014, dated 2023)
Entries after “also recorded” stand apart in the source; their conditions may differ.

How the values were obtained:
[1] = test system: Psl biofilms of P. aeruginosa PAO1 pBADpsl; assay: Dispersal of pre-formed Psl biofilms (crystal violet); type: cell-based, Pseudomonas aeruginosa
A. fumigatus GAG biofilm = assay: Inhibition of GAG-dependent A. fumigatus biofilm formation (crystal violet); type: cell-based; conditions: 20 h in Brian media, crystal violet
[2] = purified protein
[3] = test system: P. aeruginosa PAO1 ΔwspFΔpslpBADpel biofilms with differentiated HL-60 cells; assay: HL-60 neutrophil killing of P. aeruginosa biofilm (CFU plating)
Procedure: Overnight cultures of P. aeruginosa PAO1 ΔwspFΔpslpBADpel were diluted to an OD600 of 0.05 in LB+0.5% arabinose and inoculated in a 96 well tissue culture-treated plate at a final volume of 100 μl/well. The plate was incubated statically at 28° C. for 20 h. Supernatants were aspirated and 100 μL of phenol red-free RPMI+10% Fetal Bovine Serum (FBS) containing 0.5 μM of PelA47-303 was added. The plate was incubated at room temperature on a Nutator for 1 h. Following pretreatment with hydrolase, 100 μL RPMI+10% FBS containing 6×10^6 differentiated HL-60 cells were added to the wells, and plate was incubated for 90 min at 37° C., 5% CO2. Wells were aspirated and supernatant was diluted between 1/200000 and 1/400000, and plated (50 μl) onto LB agar. To aspirated wells, 200 μL of “disruption solution” (PBS containing 2 μM of PelA47-303 and 2 μM PslG31-442) was added and plate was incubated at room temperature on the Nutator for 1-1.5 h. Wells were aspirated, diluted and plated onto LB agar as above.

[4] = Reducing sugar assay, substrate specificity; type: biochemical
Procedure: […] […] The pellets were washed twice with 350 μL PBS. The wash procedure included vortexing for 5 min, sonicated in a bath for 3 min, and manual mixing by pipetting to reach homogeneity. The final pellet was resuspended in 200 μL of PBS. Samples were treated with 10-20 μM protein and incubated at 26° C. Samples were taken at 24 h. […] Briefly, 20 μL of enzyme reaction was mixed with 20 μL of 0.5 M NaOH and 20 μL of MBTH/DTT solution (1.5 mg/L 3-methyl-2-benzothiazolinone hydrazine (MBTH) and 0.5 mg/L DTT). The samples were incubated at 80° C. for 15 min before the addition of 40 μL of acidic iron reagent (0.5% (FeNH4(SO4)2).12 H2O, 0.5% sulfamic acid, and 0.25 N HCl). Samples were diluted two-fold in water, before the absorbance was quantified at 620 nm.

[5] = test system: Pel biofilms of P. aeruginosa PAO1 ΔwspFΔpslpBADpel; assay: Dispersal of pre-formed Pel biofilms (crystal violet); conditions: 38 μM and 19 μM, 2 h
Description: The methodology to generate pre-formed Pel biofilms is identical to that of Psl biofilms, described in Example 4 with the exception that the strain used is P. aeruginosa PAO1 ΔwspFΔpslpBADpel.

[6] = test system: PNAG-overproducing E. coli biofilms; assay: Dispersal of pre-formed PNAG-dependent E. coli biofilms
Procedure: Bacterial cultures expressing Psl were inoculated as stated above and were grown at 37° C. overnight with shaking at 200 rpm. All cultures were diluted in 1:100 in LB and arabinose was added to a final concentration of 0.5% (w/v) to induce Psl biosynthesis. Media containing the Psl-producing cultures were supplemented with 200 μg/mL ampicillin and 100 μg/mL kanamycin. The cultures were incubated statically for 24 h at 26° C. to allow for biofilm formation. After incubation non-adherent cells and media were removed by washing the plate with deionized water three times. The wells were filled with 95 μL of 100 mM sodium HEPES buffer pH 7.0 followed by 5 μL of varying concentrations of each hydrolytic enzyme (2 nM-5 μM). Reactions were allowed to proceed for up to 60 min at 25° C. on a rotating nutator at which time, the reaction was quenched by washing the plates with deionized water. The wells were stained with 200 μL of 0.1% (w/v) crystal violet for 10 min, and washed with water three times. Crystal violet dye from Psi cultures was solubilized in 100 μL of 95% ethanol for 10 min with rotation, after which time the absorbance was measured at 595 nm using a SpectraMax M2 from Molecular Devices (Sunnyvale, Calif.). The amount of biofilm is proportional to the absorbance from staining with crystal violet (Merritt et al 2005). All reactions were completed in at least triplicate and 100 mM sodium HEPES buffer pH 7.0 was used as an untreated control. The addition of 2.5 mg/mL kanamycin to culture prior to biofilm formation was used as a positive control as no cell growth occurs.
PNAG-overproducing E. coli was grown at 37° C. overnight in LB broth supplement with 200 ug/mL ampicillin and 100 ug/mL kanamycin with shaking at 200 rpm. An E. coli μgaABCD knockout strain was used as a non-biofilm forming control for background straining.

[7] = test system: P. aeruginosa PAO1 ΔwspFΔpslpBADpel; assay: Inhibition of Pel biofilm formation in static culture (crystal violet); conditions: static culture
[8] = test system: pre-formed A. fumigatus GAG biofilms; type: cell-based; conditions: crystal violet
[9] = Reducing sugar assay on purified GAG; type: biochemical, A. fumigatus
Procedure: Crude GAG was isolated from A. fumigatus biofilms. 200 μL GAG aliquots were centrifuged to pellet the gelatinous fraction. The pellets were washed twice with 350 μL PBS. The wash procedure included vortexing for 5 min, sonicated in a bath for 3 min, and manual mixing by pipetting to reach homogeneity. The final pellet was resuspended in 200 μL of PBS. Samples were treated with 10-20 μM protein and incubated at 26° C. Samples were taken at 24 h. GAG hydrolysis was quantified using a reducing sugar assay as described previously (Anthon & Barrett 2002) with slight modifications. Briefly, 20 μL of enzyme reaction was mixed with 20 μL of 0.5 M NaOH and 20 μL of MBTH/DTT solution (1.5 mg/L 3-methyl-2-benzothiazolinone hydrazine (MBTH) and 0.5 mg/L DTT). The samples were incubated at 80° C. for 15 min before the addition of 40 μL of acidic iron reagent (0.5% (FeNH4(SO4)2).12 H2O, 0.5% sulfamic acid, and 0.25 N HCl). Samples were diluted two-fold in water, before the absorbance was quantified at 620 nm.

[10] = test system: A549 pulmonary epithelial cell line injured by A. fumigatus; assay: Chromium release epithelial cell damage assay; conditions: 0.5 μM, 16 h
Procedure: The immortalized airway epithelial cell line A549 was loaded with chromium-51 by incubating monolayers grown in 24-well tissue culture plates with 3 mCi of ^51Cr at 37° C. in 5% CO2 for 24 h. Excess chromium was removed by washing with Hank's Balanced Salt Solution (HBSS). […] For testing germ tubes, conidia were grown for 7 h in SAB media at 37° C., then the fungus was collected and resuspended in DF12K media before 0.5 μM of hydrolase was added. The germ tubes were incubated with hydrolase for 1 h before being added to the A549 cells. After 16, 20 and 24 h of co-incubation, an aliquot of the medium above the cells was retrieved and replaced with fresh media. The cells were then lysed with 6 N NaOH and the lysate collected. The ^51Cr content of the medium and lysates was then measured in a gamma counter and the extent of epithelial cell damage was calculated as a function of the degree of ^51Cr release. Each strain was tested in triplicate, and all results were corrected for spontaneous chromium release by uninfected epithelial cells.
The methodology for prevention of epithelial cell damage caused by A. fumigatus using Sph352-298 is identical to that previously described in Example 19 for the use PelA47-303.

[11] = test system: Pel-dependent biofilms from P. aeruginosa PAO1 ΔwspFΔpslpBADpel; assay: Pel biofilm dispersal by enzyme in Pluronic F-127 gel; type: cell-based, Pseudomonas aeruginosa; conditions: 100, 200 and 500 μg/mL in 20% Pluronic F-127, 1 h
Procedure: Poloxamer 407 (trade name Pluronic® F-127 or PF-127) is a hydrophilic non-ionic surfactant has been used as a drug delivery system for a number of routes of administration (Escobar-Chavez et al 2006). A 20% gel of PF-127 was prepared by mixing 1×PBS with Pluronic® F-127 at 4° C. until the polymer was dissolved. PelA47-303 was added at three concentrations; 100 μg/mL, 200 μg/mL and 500 μg/mL to this solution. Pel-dependent biofilms from strain P. aeruginosa PAO1 ΔwspFΔpslpBADpel were formed as described in Example 8. The buffer, gel and gels containing various concentrations of PelA47-303 were applied to the biofilm.

[12] = test system: P. aeruginosa PAO1 pBADpsl; assay: Inhibition of Psl biofilm formation in static culture (crystal violet); type: cell-based, Pseudomonas aeruginosa; conditions: specificity control

B1: PelA47-303: soluble PelA hydrolase domain, residues 47-303, P. aeruginosa PAO1, SEQ ID NO: 12 (protein, listed as Pseudomonas aeruginosa)
chain: GGPSSVAFWYAERPPLAELSQFDWVVLEAAHLKPADVGYLKEQGSTPFAYLSVGEFDGDAAAIADSGLARGKSAVRNQAWNSQVMDLAAPSWRAHLLKRAAELRKQGYAGLFLDTLDSFQLQAEERREGQRRALASFLAQLHRQEPGLKLFFNRGFEVLPELPGVASAVAVESIHAGWDAAAGQYREVPQDDRDWLKGHLDALRAQGMPIVAIDYLPPERRDEARALAARLRSEGYVPFVSTPALDYLGVSDVEVQP
For B1, the “dispersal of pre-formed Psl biofilm (in words)” value [1] was “did not result in the loss of the Psl-dependent biofilm”, the “concentration sufficient to prevent GAG biofilm formation” value (A. fumigatus GAG biofilm) was at least 2 µM and the “concentration to which the protein could be concentrated” value [2] was 8000 to 10000 µg/mL. The “degree of microbial killing by HL-60 neutrophil cell line” value ([3]; 0.5 μM enzyme pretreatment, neutrophils alone approximately 22%) was about 42%, the “bacterial killing relative to neutrophils alone” value ([3]; enzyme with neutrophils) was about 2 fold and the “hydrolysis of chitin and chitosan” value [4] was “not significant over background hydrolysis”. The “dispersal of pre-formed Pel biofilm (in words)” value [5] was “successfully dispersed the Pel biofilm; also recorded: biofilm dispersal after 2 hours”, the “dispersal of PNAG-dependent biofilms (in words)” value [6] was “had no affect” and the “enzyme concentration that prevented Pel biofilm formation” value [7] was 500 nM. For the same molecule, the “dispersal of pre-formed GAG biofilm (in words)” value [8] was “elimination of the GAG biofilm”, the “GAG hydrolysis, reducing ends (in words)” value ([9]; 10-20 μM protein, 26° C., 24 h) was “number of reducing ends in solution increased” and the “reducing ends produced relative to Sph352-298” value ([9]; under assay conditions) was about 2 fold. For the same molecule, the “epithelial cell injury by A. fumigatus, chromium release” value [10] was “blocked the ability of A. fumigatus to induce pulmonary epithelial cell injury”, the “dispersal of Pel-dependent biofilm by enzyme in gel” value [11] was “able to disperse the biofilm; also recorded: successfully dispersed the biofilm” and the “inhibition of Psl biofilm formation (in words)” value [12] was “did not inhibit Psl biofilm formation”.
